Results on 16 molecules are retold here after patent US20200024322A1 (Eli Lilly, published 2020).

In general, Ki refers to a dissociation constant, usually derived from enzyme kinetics or from competition with a known ligand.

Numbering of substitutions follows the chain as printed. Numbered stars: 1 amine (or outer) side, 2 acyl side, 3 side chain; on linkers, the order of the positions; unused ones are H or OH. Square brackets hold non-standard residues; d marks the D form. Side chains are listed from the residue outwards. Ends that are not written are not given here. * marks the point of attachment. C20 diacid = O=C(O)CCCCCCCCCCCCCCCCCCC(=O)*; C18 diacid = O=C(O)CCCCCCCCCCCCCCCCC(=O)*; γGlu = O=C(O)[C@H](CCC(=O)[*:2])N[*:1]; AEEA = NCCOCCOCC(=O)O; Aib = CC(C)(N)C(=O)O

To fix the notation:
B1: Example 324 (peptide)
peptide: YXEGTFTSDYSIXLDKKAQXAFIEYLIAGGPSSGAPPPS
modifications: Aib2; αMeL13; K17((2-[2-(2-Amino-ethoxy)-ethoxy]-acetyl)2-(γ-Glu)-CO-(CH2)18-CO2H); Aib20; C-terminal NH2
B2: Example 292 (peptide)
peptide: B1 peptide with Y1X, A21E, Y25X
modifications: D-Tyr1; Aib2; αMeL13; K17((2-[2-(2-Amino-ethoxy)-ethoxy]-acetyl)2-(γ-Glu)-CO-(CH2)18-CO2H); Aib20; αMeY25; C-terminal NH2
B3: Example 340 (peptide)
peptide: B1 peptide with Y1X
modifications: D-Tyr1; Aib2; αMeL13; K17((2-[2-(2-Amino-ethoxy)-ethoxy]-acetyl)2-(γ-Glu)-CO-(CH2)18-CO2H); Aib20; C-terminal NH2
B4: Example 341 (peptide)
peptide: B1 peptide with Y1X, K16E
modifications: D-Tyr1; Aib2; αMeL13; K17((2-[2-(2-Amino-ethoxy)-ethoxy]-acetyl)2-(γ-Glu)-CO-(CH2)18-CO2H); Aib20; C-terminal NH2
B5: Example 332 (peptide)
peptide: B1 peptide with K16E
modifications: Aib2; αMeL13; K17((2-[2-(2-Amino-ethoxy)-ethoxy]-acetyl)2-(γ-Glu)-CO-(CH2)18-CO2H); Aib20; C-terminal NH2
B6: Example 327 (peptide)
peptide: B1 peptide with Y1F, A28E
modifications: Aib2; αMeL13; K17((2-[2-(2-Amino-ethoxy)-ethoxy]-acetyl)2-(γ-Glu)-CO-(CH2)18-CO2H); Aib20; C-terminal NH2
B7: Example 337 (peptide)
peptide: B1 peptide with Y1F
modifications: Aib2; αMeL13; K17((2-[2-(2-Amino-ethoxy)-ethoxy]-acetyl)2-(γ-Glu)-CO-(CH2)18-CO2H); Aib20; C-terminal NH2
B8: Example 333 (peptide)
peptide: B1 peptide with A21E, A28E
modifications: Aib2; αMeL13; K17((2-[2-(2-Amino-ethoxy)-ethoxy]-acetyl)2-(γ-Glu)-CO-(CH2)18-CO2H); Aib20; C-terminal NH2
B9: Example 339 (peptide)
peptide: B1 peptide with A21E
modifications: Aib2; αMeL13; K17((2-[2-(2-Amino-ethoxy)-ethoxy]-acetyl)-(γ-Glu)-CO-(CH2)18-CO2H); Aib20; C-terminal NH2
B10: Example 323 (peptide)
peptide: B1 peptide with K16E, A28E
modifications: Aib2; αMeL13; K17((2-[2-(2-Amino-ethoxy)-ethoxy]-acetyl)2-(γ-Glu)-CO-(CH2)16-CO2H); Aib20; C-terminal NH2
B11: Example 290 (peptide)
peptide: B1 peptide with Y1X, A21E
modifications: D-Tyr1; Aib2; αMeL13; K17((2-[2-(2-Amino-ethoxy)-ethoxy]-acetyl)2-(γ-Glu)-CO-(CH2)18-CO2H); Aib20; C-terminal NH2
B12: Example 334 (peptide)
peptide: B1 peptide with Y1X, A28E
modifications: D-Tyr1; Aib2; αMeL13; K17((2-[2-(2-Amino-ethoxy)-ethoxy]-acetyl)2-(γ-Glu)-CO-(CH2)18-CO2H); Aib20; C-terminal NH2
B13: Example 288 (peptide)
peptide: Y[Aib]EGTFTSDYSILLDKK([AEEA-AEEA-γGlu-C20 diacid])AQ[Aib]AFIEYLIAGGPSSGAPPPS-NH2
modifications: N-terminus assumed
SMILES: CC[C@H](C)[C@H](NC(=O)[C@H](CC(C)C)NC(=O)[C@H](Cc1ccc(O)cc1)NC(=O)[C@H](CCC(=O)O)NC(=O)[C@@H](NC(=O)[C@H](Cc1ccccc1)NC(=O)[C@H](C)NC(=O)C(C)(C)NC(=O)[C@H](CCC(N)=O)NC(=O)[C@H](C)NC(=O)[C@H](CCCCNC(=O)COCCOCCNC(=O)COCCOCCNC(=O)CC[C@H](NC(=O)CCCCCCCCCCCCCCCCCCC(=O)O)C(=O)O)NC(=O)[C@H](CCCCN)NC(=O)[C@H](CC(=O)O)NC(=O)[C@H](CC(C)C)NC(=O)[C@H](CC(C)C)NC(=O)[C@@H](NC(=O)[C@H](CO)NC(=O)[C@H](Cc1ccc(O)cc1)NC(=O)[C@H](CC(=O)O)NC(=O)[C@H](CO)NC(=O)[C@@H](NC(=O)[C@H](Cc1ccccc1)NC(=O)[C@@H](NC(=O)CNC(=O)[C@H](CCC(=O)O)NC(=O)C(C)(C)NC(=O)[C@@H](N)Cc1ccc(O)cc1)[C@@H](C)O)[C@@H](C)O)[C@@H](C)CC)[C@@H](C)CC)C(=O)N[C@@H](C)C(=O)NCC(=O)NCC(=O)N1CCC[C@H]1C(=O)N[C@@H](CO)C(=O)N[C@@H](CO)C(=O)NCC(=O)N[C@@H](C)C(=O)N1CCC[C@H]1C(=O)N1CCC[C@H]1C(=O)N1CCC[C@H]1C(=O)N[C@@H](CO)C(N)=O
notes: also called GG-709
B14: Example 267 (peptide)
peptide: Y[Aib]EGTFTSDYSILLDKK([AEEA-AEEA-γGlu-C18 diacid])AQ[Aib]AFIEYLIEGG-NH2
modifications: N-terminus assumed
SMILES: CC[C@H](C)[C@H](NC(=O)[C@H](CC(C)C)NC(=O)[C@H](Cc1ccc(O)cc1)NC(=O)[C@H](CCC(=O)O)NC(=O)[C@@H](NC(=O)[C@H](Cc1ccccc1)NC(=O)[C@H](C)NC(=O)C(C)(C)NC(=O)[C@H](CCC(N)=O)NC(=O)[C@H](C)NC(=O)[C@H](CCCCNC(=O)COCCOCCNC(=O)COCCOCCNC(=O)CC[C@H](NC(=O)CCCCCCCCCCCCCCCCC(=O)O)C(=O)O)NC(=O)[C@H](CCCCN)NC(=O)[C@H](CC(=O)O)NC(=O)[C@H](CC(C)C)NC(=O)[C@H](CC(C)C)NC(=O)[C@@H](NC(=O)[C@H](CO)NC(=O)[C@H](Cc1ccc(O)cc1)NC(=O)[C@H](CC(=O)O)NC(=O)[C@H](CO)NC(=O)[C@@H](NC(=O)[C@H](Cc1ccccc1)NC(=O)[C@@H](NC(=O)CNC(=O)[C@H](CCC(=O)O)NC(=O)C(C)(C)NC(=O)[C@@H](N)Cc1ccc(O)cc1)[C@@H](C)O)[C@@H](C)O)[C@@H](C)CC)[C@@H](C)CC)C(=O)N[C@@H](CCC(=O)O)C(=O)NCC(=O)NCC(N)=O
B15: Example 273 (peptide)
peptide: Y[Aib]EGTFTSDYSILLDKK([AEEA-AEEA-γGlu-C18 diacid])AQ[Aib]AFIEYLIAGG-NH2
modifications: N-terminus assumed
SMILES: CC[C@H](C)[C@H](NC(=O)[C@H](CC(C)C)NC(=O)[C@H](Cc1ccc(O)cc1)NC(=O)[C@H](CCC(=O)O)NC(=O)[C@@H](NC(=O)[C@H](Cc1ccccc1)NC(=O)[C@H](C)NC(=O)C(C)(C)NC(=O)[C@H](CCC(N)=O)NC(=O)[C@H](C)NC(=O)[C@H](CCCCNC(=O)COCCOCCNC(=O)COCCOCCNC(=O)CC[C@H](NC(=O)CCCCCCCCCCCCCCCCC(=O)O)C(=O)O)NC(=O)[C@H](CCCCN)NC(=O)[C@H](CC(=O)O)NC(=O)[C@H](CC(C)C)NC(=O)[C@H](CC(C)C)NC(=O)[C@@H](NC(=O)[C@H](CO)NC(=O)[C@H](Cc1ccc(O)cc1)NC(=O)[C@H](CC(=O)O)NC(=O)[C@H](CO)NC(=O)[C@@H](NC(=O)[C@H](Cc1ccccc1)NC(=O)[C@@H](NC(=O)CNC(=O)[C@H](CCC(=O)O)NC(=O)C(C)(C)NC(=O)[C@@H](N)Cc1ccc(O)cc1)[C@@H](C)O)[C@@H](C)O)[C@@H](C)CC)[C@@H](C)CC)C(=O)N[C@@H](C)C(=O)NCC(=O)NCC(N)=O

One experiment deals with T1, human glucagon receptor (human, UniProt P47871 26-477).
T1 construct: whole, on cells; also called hGcgR; GcgR
T1 sequence (P47871 26-477): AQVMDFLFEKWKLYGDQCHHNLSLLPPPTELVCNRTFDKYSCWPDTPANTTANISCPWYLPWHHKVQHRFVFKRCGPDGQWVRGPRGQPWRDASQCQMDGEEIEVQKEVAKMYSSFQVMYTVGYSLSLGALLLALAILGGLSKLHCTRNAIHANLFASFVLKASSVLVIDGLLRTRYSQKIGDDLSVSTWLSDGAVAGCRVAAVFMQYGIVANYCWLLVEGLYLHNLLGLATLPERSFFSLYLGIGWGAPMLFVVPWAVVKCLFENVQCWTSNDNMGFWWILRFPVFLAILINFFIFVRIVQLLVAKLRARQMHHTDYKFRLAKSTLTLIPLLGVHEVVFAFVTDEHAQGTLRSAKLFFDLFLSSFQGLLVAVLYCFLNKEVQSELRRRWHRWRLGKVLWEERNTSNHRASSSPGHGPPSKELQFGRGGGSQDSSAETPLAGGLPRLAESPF
Kind of experiment: [125I]-Gcg competition SPA, hGcgR membranes.
Molecule B1 showed a Ki of 449 nM.
Regarding B2, the affinity, expressed as Ki, was 595 nM.
B3 showed a Ki of 250 nM.
Turning to B4, the Ki came out at 39.7 nM.
B5 gave a Ki of 397 nM.
Same read-out and setting: as for B6, the figure is 114 nM.
Regarding B7, the Ki stood at 335 nM.
Molecule B8 yielded a Ki of 578 nM.
Molecule B9 gave a Ki of 873 nM.
On to B10, for which the Ki worked out at 300 nM.
In turn, B11 gave a Ki of 308 nM. The Ki values of the last two molecules are within 1.5-fold of each other.
On the same count and under the same terms, under B12 stands 192 nM.
B13: the Ki came to 345 nM.
F[Aib]EGTFTSDYSILLDKK([AEEA-AEEA-γGlu-C20 diacid])AQ[Aib]AFIEYLIEGGPSSGAPPPS-NH2 [Example 326]: the affinity, expressed as Ki, was 207 nM.
B14 had a Ki of 349 nM.
The same measure, in the same setting: as for B15, the figure is 724 nM.

The next experiment deals with T2, human GIP receptor (human, UniProt P48546 22-466).
T2 construct: whole, on cells; also called hGIPR; hGIP-R
T2 sequence (looked up): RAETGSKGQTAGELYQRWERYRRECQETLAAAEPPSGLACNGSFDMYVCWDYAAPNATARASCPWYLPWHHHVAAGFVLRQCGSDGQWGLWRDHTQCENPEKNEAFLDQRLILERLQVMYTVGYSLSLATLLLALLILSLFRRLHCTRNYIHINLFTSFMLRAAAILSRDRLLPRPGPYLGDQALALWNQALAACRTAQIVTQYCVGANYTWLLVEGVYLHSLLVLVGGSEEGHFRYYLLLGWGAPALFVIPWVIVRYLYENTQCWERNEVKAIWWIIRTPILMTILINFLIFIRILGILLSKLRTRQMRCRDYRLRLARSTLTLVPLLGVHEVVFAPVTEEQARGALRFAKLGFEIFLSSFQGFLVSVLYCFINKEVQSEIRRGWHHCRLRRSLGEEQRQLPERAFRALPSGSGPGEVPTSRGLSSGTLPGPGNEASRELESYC
The experiment can be described thus: [125I]-GIP competition SPA, hGIPR membranes.
The molecule B1 gave a Ki of 0.0278 nM.
B2 displayed a Ki of 0.0547 nM.
Take B3: affinity was put at a Ki of 0.0507 nM.
The same measure, in the same setting: as for B4, the figure is 0.0559 nM; as for B5, 0.0497 nM; as for B6, 0.0667 nM.
As to B7, the Ki is 0.0363 nM.
Take B8: the affinity, expressed as Ki, was 0.0634 nM.
On the same count and under the same terms, under B9 stands 0.0388 nM.
On the same count and under the same terms, as for B10, the figure is 0.0516 nM; as for B11, 0.0617 nM; as for B12, 0.0646 nM.
B13: the affinity, expressed as Ki, was 0.058 nM.
As for F[Aib]EGTFTSDYSILLDKK([AEEA-AEEA-γGlu-C20 diacid])AQ[Aib]AFIEYLIEGGPSSGAPPPS-NH2 [Example 326], the affinity corresponds to a Ki of 0.251 nM.
In turn, B14 came in with a Ki of 0.0628 nM. Against the preceding molecule, the Ki is about 4-fold lower.
For the molecule B15, the Ki stood at 0.0698 nM.

Another experiment concerns the target T3, human GLP-1 receptor (human, UniProt P43220 24-463).
T3 construct: whole, on cells; also called hGLP-1R; hGLP1R
Kind of experiment: [125I]-GLP-1 competition SPA, hGLP-1R membranes. The essentials:
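Kᵢ values are geometric means (SEM) over replicates run on separate days, derived from IC₅₀ of four-parameter curve fits. Buffer: HEPES 25 mM pH 7.4 with CaCl₂ 2.5 mM, MgCl₂ 1 mM, bacitracin 0.1%, TWEEN-20 0.003%, EDTA-free protease inhibitors.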
Consider B1, for which the inhibitory constant (Ki) was determined as 0.609 nM. This counts as sub-nanomolar.
The molecule B2 registered a Ki of 1.19 nM.
Molecule B3 yielded a Ki of 2.08 nM. This Ki lies about 1.7-fold higher than the previous one.
The same measure, in the same setting: under B4 stands 6.49 nM; under B5, 7.87 nM; under B6, 2.1 nM.
Same read-out and setting: as for B7, the figure is 1.61 nM.
In turn, B8 registered a Ki of 4.25 nM.
In turn, B9 showed a Ki of 2.69 nM.
For B10, the affinity, expressed as Ki, was 1.65 nM. Against the preceding molecule, the Ki is about 1.6-fold lower.
With B11, the Ki came to 2.44 nM.
The molecule B12 yielded a Ki of 2.17 nM. This Ki and that of the molecule before are within 1.5-fold of each other.
For B13, the Ki was 1.6 nM.
The molecule F[Aib]EGTFTSDYSILLDKK([AEEA-AEEA-γGlu-C20 diacid])AQ[Aib]AFIEYLIEGGPSSGAPPPS-NH2 [Example 326] registered a Ki of 2.92 nM.
Consider B14, for which the Ki amounted to 1.57 nM.
In turn, B15 registered a Ki of 1.13 nM.
